The results in this text go back to US20220227827A1 (DINGFU BIOTARGET, published 2022).

B2: Human IL10R1 (receptor)
chain: HGTELPSPPSVWFEAEFFHHILHWTPIPNQSESTCYEVALLRYGIESWNSISNCSQTLSYDLTAVTLDLYHSNGYRARVRAVDGSRHSNWTVTNTRFSVDEVTLTVGSVNLEIHNGFILGKIQLPRPKMAPANDTYESIFSHFREYEIAIRKVPGNFTFTHKKVKHENFSLLTSGEVGEFCVQVKPSVASRSNKGMWSKEECISLTRQYFTVTN
notes: Bought recombinant protein coated on the ELISA plate; also called hIL10R1; human IL10R1 proteins

The test “Human IL10R1” deals with B2. In words: ELISA, human IL10R1 coated at 5 ug/mL, detection with goat anti-hIgG-HRP.
Method: Human IL10R1 (R&D, 9100-R1-050) was diluted to 5 μg/mL with coating buffer (50 mM Na₂CO₃, NaHCO₃ pH 9.6), 100 μL/well, overnight at 4° C. After washing, the plates were sealed with 3% BSA-PBS for 1 h at 37° C. The heterodimer proteins of the present disclosure were respectively diluted from 2000 ng/mL and were then diluted 2-fold to a total of 11 concentrations, with the diluent (1% BSA-PBS) as a control, and incubated for 2 h at 37° C. Goat anti-hIgG-HRP (Sigma, A0170) was added and incubated for 1 h at 37° C. The soluble one-component TMB substrate developing solution was added, and the developing was performed in dark at room temperature for 5-10 min. 2N H₂SO₄ 50 μL/well was added to terminate the color development reaction.
Another test concerns the target Erb-(IL10)2. In words: ELISA, human IL10R1 coated. Background: ELISA stands for enzyme-linked immunosorbent assay.

B1: reverse-(IL10)2-Fc9-a (Fc fusion)
chain 1: EPKSSDKTHTCPPCPAPELLGGPSVFLFPPKPKDTLMISRTPEVTCVVVDVSHEDPEVKFNWYVDGVEVHNAKTKPREEQYNSTYRVVSVLTVLHQDWLNGKEYKCKVSNKALPAPIEKTISKAKGQPREPQVYTLPPSRDELTKNQVSLSCGVKGFYPSDIAVEWESNGQPENNYKTTPPVLDSDGSFKLASKLTVDKSRWQQGNVFSCSVMHEALHNHYTQKSLSLSPGKGGGGSGGGGSGGGGSSPGQGTQSENSCTHFPGNLPNMLRDLRDAFSRVKTFFQMKDQLDNLLLKESLLEDFKGYLGCQALSEMIQFYLEEVMPQAENQDPDIKAHVNSLGENLKTLRLRLRRCHRFLPCENKSKAVEQVKNAFNKLQEKGIYKAMSEFDIFINYIEAYMTMKIRNGGGGSGGGGSGGGGSSPGQGTQSENSCTHFPGNLPNMLRDLRDAFSRVKTFFQMKDQLDNLLLKESLLEDFKGYLGCQALSEMIQFYLEEVMPQAENQDPDIKAHVNSLGENLKTLRLRLRRCHRFLPCENKSKAVEQVKNAFNKLQEKGIYKAMSEFDIFINYIEAYMTMKIRN
chain 2: DKTHTCPPCPAPELLGGPSVFLFPPKPKDTLMISRTPEVTCVVVDVSHENPEVKFNWYVDGVEVHNAKTKPREEQYNSTYRVVSVLTVLHQDWLNGKEYKCKVSNKALPAPIEKTISKAKGQPREPQVYTLPPSRDELTKNQVSLWCLVKGFYPSDIAVEWESNGQPENNYKTTPPVLDSDGSFFLYSALTVDKSRWQQGNVFSCSVMHEALHNHYTQKSLSLSPGK
notes: purified by protein A only; also called proteinaceous heterodimer of Group C
Regarding B1, it took 0.0123 µg/mL to reach a half-maximal effect with Human IL10R1 (EC50).

Consider B2, for which the binding result with Erb-(IL10)2 is “binds”.
